From US20230192860A1 (Bristol-Myers Squibb, published 2023)

Columns and labels:
[1] = molecular target: T1, monovalent hVISTA-ECD (amino acids 32-193 of SEQ ID NO: 1 with a 7xHis tail) (human, UniProt Q9H7M9 33-193); experiment: SPR, Ab on Protein A, hVISTA 100-7.8 nM, pH 7.4
T1 construct: analyte of the SPR assays; also called huVISTA-His; human VISTA-ECD

[2] = molecular target: T1, monovalent hVISTA-ECD (amino acids …); experiment: SPR 37C, Ab on Protein A, hVISTA-ECD 50-5 nM, pH 7.4, average
Description: Binding of several preparations of each of the ‘029 progeny clones and of the parent ‘029 antibodies, formatted as IgG1.3 antibodies, to human VISTA at pH 6.0 and 7.4 was measured by Surface plasmon resonance (SPR). SPR analysis was performed to measure koff and KD binding affinity measurements for VISTA Abs at acidic and neutral pHs using a Biacore® T100 instrument (GE Healthcare). […] Antibodies were diluted to 25 nM in PBST pH 7.4, and were captured across active biosensor flow cells at 5 ul/min for 60 seconds. A concentration series of 50 - 5 nM monovalent hVISTA-ECD (SEQ ID NO: 325) was prepared in pH 7.4 and 6.0 running buffers, and was injected over the captured antibodies at 40 ul/min to measure association and dissociation. Two 15 second injections of 10 mM glycine pH 1.5 were used to regenerate the Protein A capture surface between assay cycles. Rate constants ka (kₒₙ) and kd (koff) were derived from reference flow cell and 0 nM blank-subtracted sensorgrams, and were fit to a 1:1 binding model in Biacore® T200 Evaluation Software v.2.0. The affinity constant, KD was calculated as the ratio of rate constants koff/kₒₙ for each VISTA antibody.

[3] = molecular target: T1, monovalent hVISTA-ECD (amino acids …); experiment: SPR 37C, pH 7.4 over pH 6.0
Description: Human VISTA binding kinetics of P1-061029 (“ ‘029”), P1-068761 (“ ‘761”) and P1-068767 (“ ‘767”) (as IgG1.3 antibodies) were measured at pH values between pH 7.4 and pH 6.0, i.e., at pH 6.9 and pH 6.45 using a Biacore® T100 instrument (GE Healthcare). […] Antibodies were diluted to 25 nM in PBST pH 7.4, and were captured across active biosensor flow cells at 5 ul/min for 45 seconds. A concentration series of 100 - 0.78 nM monovalent hVISTA-ECD (SEQ ID NO: 325) was prepared pH 7.4, 6.9, 6.45 and 6.0 running buffers, and was injected over the captured antibodies at 40 ul/min to measure association and dissociation. Two 15 second injections of 10 mM glycine pH 1.5 were used to regenerate the Protein A capture surface between assay cycles. Rate constants ka (kₒₙ) and kd (koff) were derived from reference flow cell and 0 nM blank-subtracted sensorgrams, and were fit to a 1:1 binding model in Biacore® T200 Evaluation Software v.2.0. The affinity constant, KD was calculated as the ratio of rate constants koff/kₒₙ for each VISTA antibody. Ratios of koff and KD at each pH relative to pH 6.0 were calculated to evaluate how the VISTA koff and KD change as the buffer pH shifts to physiological, and are shown in Table 7. […] As the buffer pH shifts from acidic to physiological, VISTA koff and KD both weaken for ‘761 and ‘767. […]

[4] = molecular target: T1, monovalent hVISTA-ECD (amino acids …); experiment: SPR, pH 7.4 over pH 6.0
In short: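 Antibodies at 50 nM in PBST pH 7.4 were captured on a Protein A CM5 chip; an 8-point human VISTA titration (100 to 7.8 nM) in PBST at pH 7.4, 6.9, 6.45 or 6.0 was injected for 180 seconds at 30 µL/min. Kinetic constants came from 1:1 binding fits of sensorgrams.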

[5] = molecular target: T1, monovalent hVISTA-ECD (amino acids …); experiment: SPR 37C, pH 7.4 *, value referenced from the 1600 nM assay (same as the 4th table r7)

T1 sequence (Q9H7M9 other isoform, or with tags, fused parts or gaps limits assumed): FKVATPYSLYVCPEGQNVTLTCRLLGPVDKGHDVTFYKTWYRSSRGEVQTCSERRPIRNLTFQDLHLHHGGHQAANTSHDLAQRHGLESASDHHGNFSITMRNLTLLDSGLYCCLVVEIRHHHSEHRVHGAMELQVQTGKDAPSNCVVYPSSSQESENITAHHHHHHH

Kd [1] | koff [1] | kon [1] | Kd [2] | koff [2] | kon [2] | KD ratio to pH 6.0 [3] | koff ratio to pH 6.0 [3] | 7.4 KD/ 6.0 KD [4] | 7.4 kd/ 6.0 kd [4] | Kd [5] | koff [5] | kon [5] | Binder
0.013 µM | 0.00603 s⁻¹ | 463000 M⁻¹ s⁻¹ | 0.019 µM | 0.0056 s⁻¹ | 290000 M⁻¹ s⁻¹ | 13.2 | 1.1 | 4.5 | 1.1 | – | – | – | P1-061029.IgG1.3 (antibody, IgG1.3; also called P1-061029 (parent); P1-061029-18) heavy: EVQLVESGGGLVQPGKSLRLSCAASGFTLDDYAMHWVRQAPGKGLEWVSGINWNSANIGYADSVKGRFTISRDNAKNSLYLQMNSLRTEDTALYYCAKVPGYSGGWIDAFDVWGQGTMVTVSSASTKGPSVFPLAPSSKSTSGGTAALGCLVKDYFPEPVTVSWNSGALTSGVHTFPAVLQSSGLYSLSSVVTVPSSSLGTQTYICNVNHKPSNTKVDKRVEPKSCDKTHTCPPCPAPEAEGAPSVFLFPPKPKDTLMISRTPEVTCVVVDVSHEDPEVKFNWYVDGVEVHNAKTKPREEQYNSTYRVVSVLTVLHQDWLNGKEYKCKVSNKALPAPIEKTISKAKGQPREPQVYTLPPSREEMTKNQVSLTCLVKGFYPSDIAVEWESNGQPENNYKTTPPVLDSDGSFFLYSKLTVDKSRWQQGNVFSCSVMHEALHNHYTQKSLSLSPG light: not shown
– | – | – | – | – | – | – | – | – | – | 11 µM | 0.042 s⁻¹ | 3800 M⁻¹ s⁻¹ | P1-068761.IgG1.3 (antibody, IgG1.3; also called P1-068761-20; P1-068761 hIgG1.3f) heavy: EVQLVESGGGLVQPGKSLRLSCAASGFTLEDEAMHWVRQAPGKGLEWVSGINWNSEEIGYADSVKGRFTISRDNAKNSLYLQMNSLRTEDTALYYCAKVPGYSHGWIDAEDVWGQGTMVTVSSASTKGPSVFPLAPSSKSTSGGTAALGCLVKDYFPEPVTVSWNSGALTSGVHTFPAVLQSSGLYSLSSVVTVPSSSLGTQTYICNVNHKPSNTKVDKRVEPKSCDKTHTCPPCPAPEAEGAPSVFLFPPKPKDTLMISRTPEVTCVVVDVSHEDPEVKFNWYVDGVEVHNAKTKPREEQYNSTYRVVSVLTVLHQDWLNGKEYKCKVSNKALPAPIEKTISKAKGQPREPQVYTLPPSREEMTKNQVSLTCLVKGFYPSDIAVEWESNGQPENNYKTTPPVLDSDGSFFLYSKLTVDKSRWQQGNVFSCSVMHEALHNHYTQKSLSLSPG light: not shown
